Data from the supplement of paper PMC10567573.

B1: C1orf137 (parent)
chain: LPQETNLTLKVCKPQAPQKLDPTL

Variants of: B1
Test: protein stability index of a GFP-peptide fusion (GPS, HEK-293T) (PSI 1-6); higher = more stable
Conditions: c terminus: a fixed tail appended
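Also: lentivirally expressed fusions sorted by FACS into six bins by GFP to DsRed ratio, PSI derived from sequencing read proportions per bin multiplied by bin number.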

Row | Variant | protein stability index
1 | LPQETNLTLKVCFPQAPQKLDPTL | 2.11
2 | LPQETNLTLKVCTPQAPQKLDPTL | 4.06
3 | LPQETNLTLKVCQPQAPQKLDPTL | 4.14
4 | LPQETNLTLKVCAPQAPQKLDPTL | 3.98
5 | LPQETNLTLKVCPPQAPQKLDPTL | 4.43
6 | LPQETNLTLKVCHPQAPQKLDPTL | 3.56
7 | LPQETNLTLKVCCPQAPQKLDPTL | 3.24
8 | LPQETNLTLKVCVPQAPQKLDPTL | 3.42
9 | LPQETNLTLKVCSPQAPQKLDPTL | 4.14
10 | LPQETNLTLKVCWPQAPQKLDPTL | 2.25
11 | LPQETNLTLKVCDPQAPQKLDPTL | 4.88
12 | LPQETNLTLKVCGPQAPQKLDPTL | 4.33
13 | LPQETNLTLKVCLPQAPQKLDPTL | 2.96
14 | LPQETNLTLKVCMPQAPQKLDPTL | 3.05
15 | LPQETNLTLKVCEPQAPQKLDPTL | 4.69
16 | LPQETNLTLKVCIPQAPQKLDPTL | 2.33
17 | LPQETNLTLKVCNPQAPQKLDPTL | 4.03
18 | LPQETNLTLKVCRPQAPQKLDPTL | 3.01
19 | LPQETNLTLKVCYPQAPQKLDPTL | 3.5
20 | LPQETNLTLKVCKPQAHQKLDPTL | 3.58
21 | LPQETNLTLKVCKPQASQKLDPTL | 3.62
22 | LPQETNLTLKVCKPQAMQKLDPTL | 3.68
23 | LPQETNLTLKVCKPQAVQKLDPTL | 3.95
24 | LPQETNLTLKVCKPQADQKLDPTL | 4.52

Row | Variant | protein stability index
25 | LPQETNLTLKVCKPQAYQKLDPTL | 3.57
26 | LPQETNLTLKVCKPQAKQKLDPTL | 4.13
27 | LPQETNLTLKVCKPQARQKLDPTL | 3.17
28 | LPQETNLTLKVCKPQAFQKLDPTL | 3.03
29 | LPQETNLTLKVCKPQAWQKLDPTL | 2.3
30 | LPQETNLTLKVCKPQALQKLDPTL | 3.07
31 | LPQETNLTLKVCKPQAAQKLDPTL | 3.97
32 | LPQETNLTLKVCKPQAGQKLDPTL | 3.74
33 | LPQETNLTLKVCKPQATQKLDPTL | 3.81
34 | LPQETNLTLKVCKPQAIQKLDPTL | 4
35 | LPQETNLTLKVCKPQAEQKLDPTL | 4.27
36 | LPQETNLTLKVCKPQANQKLDPTL | 3.21
37 | LPQETNLTLKVCKPQACQKLDPTL | 3.51
38 | LPQETNLTLKVCKPQAQQKLDPTL | 4.36
39 | LPQETNLTKKVCKPQAPQKLDPTL | 4.16
40 | LPQETNLTGKVCKPQAPQKLDPTL | 4.32
41 | LPQETNLTQKVCKPQAPQKLDPTL | 4.59
42 | LPQETNLTAKVCKPQAPQKLDPTL | 4.14
43 | LPQETNLTTKVCKPQAPQKLDPTL | 4.67
44 | LPQETNLTVKVCKPQAPQKLDPTL | 4.14
45 | LPQETNLTWKVCKPQAPQKLDPTL | 3.15
46 | LPQETNLTHKVCKPQAPQKLDPTL | 3.78
47 | LPQETNLTRKVCKPQAPQKLDPTL | 4.58
48 | LPQETNLTEKVCKPQAPQKLDPTL | 4.76

Row | Variant | protein stability index
49 | LPQETNLTSKVCKPQAPQKLDPTL | 3.63
50 | LPQETNLTFKVCKPQAPQKLDPTL | 4.05
51 | LPQETNLTMKVCKPQAPQKLDPTL | 4.03
52 | LPQETNLTCKVCKPQAPQKLDPTL | 3.91
53 | LPQETNLTDKVCKPQAPQKLDPTL | 4.92
54 | LPQETNLTPKVCKPQAPQKLDPTL | 3.69
55 | LPQETNLTYKVCKPQAPQKLDPTL | 4.35
56 | LPQETNLTIKVCKPQAPQKLDPTL | 4
57 | LPQETNLTNKVCKPQAPQKLDPTL | 4.54
58 | LPQETNLTLKVRKPQAPQKLDPTL | 4.14
59 | LPQETNLTLKVTKPQAPQKLDPTL | 4.62
60 | LPQETNLTLKVIKPQAPQKLDPTL | 3.9
61 | LPQETNLTLKVFKPQAPQKLDPTL | 3.7
62 | LPQETNLTLKVYKPQAPQKLDPTL | 3.64
63 | LPQETNLTLKVLKPQAPQKLDPTL | 4.06
64 | LPQETNLTLKVVKPQAPQKLDPTL | 3.65
65 | LPQETNLTLKVGKPQAPQKLDPTL | 4.81
66 | LPQETNLTLKVKKPQAPQKLDPTL | 4.43
67 | LPQETNLTLKVPKPQAPQKLDPTL | 4.73
68 | LPQETNLTLKVEKPQAPQKLDPTL | 4.39
69 | LPQETNLTLKVDKPQAPQKLDPTL | 4.79
70 | LPQETNLTLKVMKPQAPQKLDPTL | 4.07
71 | LPQETNLTLKVHKPQAPQKLDPTL | 4.66
72 | LPQETNLTLKVSKPQAPQKLDPTL | 4.07

Row | Variant | protein stability index
73 | LPQETNLTLKVNKPQAPQKLDPTL | 4.31
74 | LPQETNLTLKVWKPQAPQKLDPTL | 4.28
75 | LPQETNLTLKVQKPQAPQKLDPTL | 4.1
76 | LPQETNLTLKVAKPQAPQKLDPTL | 5.06
77 | LPQETNLTLKVCKPLAPQKLDPTL | 2.96
78 | LPQETNLTLKVCKPMAPQKLDPTL | 3.28
79 | LPQETNLTLKVCKPNAPQKLDPTL | 4.04
80 | LPQETNLTLKVCKPVAPQKLDPTL | 3.65
81 | LPQETNLTLKVCKPSAPQKLDPTL | 3.86
82 | LPQETNLTLKVCKPAAPQKLDPTL | 3.91
83 | LPQETNLTLKVCKPGAPQKLDPTL | 3.93
84 | LPQETNLTLKVCKPYAPQKLDPTL | 2.64
85 | LPQETNLTLKVCKPKAPQKLDPTL | 3.69
86 | LPQETNLTLKVCKPRAPQKLDPTL | 3.69
87 | LPQETNLTLKVCKPHAPQKLDPTL | 3.65
88 | LPQETNLTLKVCKPWAPQKLDPTL | 3.5
89 | LPQETNLTLKVCKPDAPQKLDPTL | 4.49
90 | LPQETNLTLKVCKPFAPQKLDPTL | 2.69
91 | LPQETNLTLKVCKPCAPQKLDPTL | 3.58
92 | LPQETNLTLKVCKPEAPQKLDPTL | 4.41
93 | LPQETNLTLKVCKPTAPQKLDPTL | 4.08
94 | LPQETNLTLKVCKPIAPQKLDPTL | 3.03
95 | LPQETNLTLKVCKRQAPQKLDPTL | 4.27
96 | LPQETNLTLKVCKGQAPQKLDPTL | 4.55

Row | Variant | protein stability index
97 | LPQETNLTLKVCKNQAPQKLDPTL | 4.72
98 | LPQETNLTLKVCKEQAPQKLDPTL | 4.71
99 | LPQETNLTLKVCKYQAPQKLDPTL | 3.37
100 | LPQETNLTLKVCKMQAPQKLDPTL | 3.08
101 | LPQETNLTLKVCKHQAPQKLDPTL | 4.07
102 | LPQETNLTLKVCKIQAPQKLDPTL | 2.76
103 | LPQETNLTLKVCKVQAPQKLDPTL | 3.55
104 | LPQETNLTLKVCKQQAPQKLDPTL | 4.41
105 | LPQETNLTLKVCKCQAPQKLDPTL | 3.02
106 | LPQETNLTLKVCKLQAPQKLDPTL | 2.81
107 | LPQETNLTLKVCKKQAPQKLDPTL | 4.1
108 | LPQETNLTLKVCKFQAPQKLDPTL | 2.71
109 | LPQETNLTLKVCKDQAPQKLDPTL | 4.76
110 | LPQETNLTLKVCKWQAPQKLDPTL | 3.47
111 | LPQETNLTLKVCKAQAPQKLDPTL | 3.59
112 | LPQETNLTLKVCKTQAPQKLDPTL | 4.16
113 | LPQETNLTLKVCKSQAPQKLDPTL | 4.27
114 | LPQETNLTLRVCKPQAPQKLDPTL | 3.03
115 | LPQETNLTLMVCKPQAPQKLDPTL | 2.95
116 | LPQETNLTLWVCKPQAPQKLDPTL | 2.17
117 | LPQETNLTLYVCKPQAPQKLDPTL | 2.98
118 | LPQETNLTLSVCKPQAPQKLDPTL | 4.01
119 | LPQETNLTLDVCKPQAPQKLDPTL | 4.56
120 | LPQETNLTLLVCKPQAPQKLDPTL | 2.55

Row | Variant | protein stability index
121 | LPQETNLTLEVCKPQAPQKLDPTL | 4.5
122 | LPQETNLTLIVCKPQAPQKLDPTL | 2.13
123 | LPQETNLTLQVCKPQAPQKLDPTL | 3.65
124 | LPQETNLTLFVCKPQAPQKLDPTL | 2.18
125 | LPQETNLTLGVCKPQAPQKLDPTL | 3.78
126 | LPQETNLTLPVCKPQAPQKLDPTL | 4.17
127 | LPQETNLTLCVCKPQAPQKLDPTL | 3.66
128 | LPQETNLTLHVCKPQAPQKLDPTL | 3.48
129 | LPQETNLTLNVCKPQAPQKLDPTL | 4.37
130 | LPQETNLTLTVCKPQAPQKLDPTL | 3.46
131 | LPQETNLTLVVCKPQAPQKLDPTL | 2.7
132 | LPQETNLTLAVCKPQAPQKLDPTL | 4.61
133 | LPQETNLTLKVCKPQAPSKLDPTL | 3.58
134 | LPQETNLTLKVCKPQAPMKLDPTL | 3.28
135 | LPQETNLTLKVCKPQAPDKLDPTL | 4.59
136 | LPQETNLTLKVCKPQAPNKLDPTL | 3.52
137 | LPQETNLTLKVCKPQAPFKLDPTL | 2.39
138 | LPQETNLTLKVCKPQAPRKLDPTL | 3.8
139 | LPQETNLTLKVCKPQAPAKLDPTL | 4.65
140 | LPQETNLTLKVCKPQAPVKLDPTL | 3.56
141 | LPQETNLTLKVCKPQAPCKLDPTL | 3.79
142 | LPQETNLTLKVCKPQAPPKLDPTL | 3.75
143 | LPQETNLTLKVCKPQAPLKLDPTL | 3.31
144 | LPQETNLTLKVCKPQAPTKLDPTL | 3.82

Row | Variant | protein stability index
145 | LPQETNLTLKVCKPQAPIKLDPTL | 3.92
146 | LPQETNLTLKVCKPQAPHKLDPTL | 3.69
147 | LPQETNLTLKVCKPQAPYKLDPTL | 3.13
148 | LPQETNLTLKVCKPQAPGKLDPTL | 3.59
149 | LPQETNLTLKVCKPQAPKKLDPTL | 3.97
150 | LPQETNLTLKVCKPQAPEKLDPTL | 3.23
151 | LPQETNLTLKWCKPQAPQKLDPTL | 2.44
152 | LPQETNLTLKKCKPQAPQKLDPTL | 3.65
153 | LPQETNLTLKCCKPQAPQKLDPTL | 3.96
154 | LPQETNLTLKMCKPQAPQKLDPTL | 3.77
155 | LPQETNLTLKHCKPQAPQKLDPTL | 4.08
156 | LPQETNLTLKDCKPQAPQKLDPTL | 4.91
157 | LPQETNLTLKICKPQAPQKLDPTL | 3.24
158 | LPQETNLTLKSCKPQAPQKLDPTL | 4.19
159 | LPQETNLTLKTCKPQAPQKLDPTL | 3.66
160 | LPQETNLTLKFCKPQAPQKLDPTL | 3.22
161 | LPQETNLTLKECKPQAPQKLDPTL | 5.09
162 | LPQETNLTLKRCKPQAPQKLDPTL | 3.05
163 | LPQETNLTLKLCKPQAPQKLDPTL | 3.55
164 | LPQETNLTLKNCKPQAPQKLDPTL | 4.21
165 | LPQETNLTLKGCKPQAPQKLDPTL | 3.42
166 | LPQETNLTLKYCKPQAPQKLDPTL | 3.82
167 | LPQETNLTLKPCKPQAPQKLDPTL | 4.54
168 | LPQETNLTLKACKPQAPQKLDPTL | 4.12

Row | Variant | protein stability index
169 | LPQETNLTLKQCKPQAPQKLDPTL | 3.32
170 | LPQETNLTLKVCKPQPPQKLDPTL | 3.62
171 | LPQETNLTLKVCKPQIPQKLDPTL | 3.56
172 | LPQETNLTLKVCKPQYPQKLDPTL | 3.38
173 | LPQETNLTLKVCKPQTPQKLDPTL | 4.07
174 | LPQETNLTLKVCKPQMPQKLDPTL | 3.54
175 | LPQETNLTLKVCKPQHPQKLDPTL | 4.14
176 | LPQETNLTLKVCKPQVPQKLDPTL | 3.94
177 | LPQETNLTLKVCKPQQPQKLDPTL | 3.96
178 | LPQETNLTLKVCKPQKPQKLDPTL | 4.15
179 | LPQETNLTLKVCKPQNPQKLDPTL | 4.04
180 | LPQETNLTLKVCKPQFPQKLDPTL | 2.92
181 | LPQETNLTLKVCKPQRPQKLDPTL | 3.58
182 | LPQETNLTLKVCKPQSPQKLDPTL | 4.02
183 | LPQETNLTLKVCKPQDPQKLDPTL | 4.41
184 | LPQETNLTLKVCKPQLPQKLDPTL | 3.69
185 | LPQETNLTLKVCKPQWPQKLDPTL | 2.02
186 | LPQETNLTLKVCKPQEPQKLDPTL | 4.45
187 | LPQETNLTLKVCKPQGPQKLDPTL | 3.98
188 | LPQETNLTLKVCKPQCPQKLDPTL | 3.6
